According to article PMC12439599 (RNA (New York, N.Y.), 2025):

B1: human eIF2β-NTT (residues 1–191), His6-tagged (domain or fragment)
chain: MSGDEMIFDPTMSKKKKKKKKPFMLDEEGDTQTEETQPSETKEVEPEPTEDKDLEADEEDTRKKDASDDLDDLNFFNQKKKKKKTKKIFDIDEAEEGVKDLKIESDVQEPTEPEDDLDIMLGNKKKKKKNVKFPDEDEILEKDEALEDEDNKKDDGISFSNQTGPAWAGSERDYTYEELLNRVFNIMREKN
B3: human eIF5-CTD (residues 232–431) (domain or fragment, UniProt P55010 232-431, looked up)
chain: LERTIEERVNILFDFVKKKKEEGVIDSSDKEIVAEAERLDVKAMGPLVLTEVLFNEKIREQIKKYRRHFLRFCHNNKKAQRYLLHGLECVVAMHQAQLISKIPHILKEMYDADLLEEEVIISWSEKASKKYVSKELAKEIRVKAEPFIKWLKEAEEESSGGEEEDEDENIEVVYSKAASVPKVETVKSDNKDDDIDIDAI
B4: human 5MP1-CTD (domain or fragment, UniProt Q9Y6E2 248-419, looked up)
chain: VQQSLGTRKELQKELQERLSQECPIKEVVLYVKEEMKRNDLPETAVIGLLWTCIMNAVEWNKKEELVAEQALKHLKQYAPLLAVFSSQGQSELILLQKVQEYCYDNIHFMKAFQKIVVLFYKADVLSEEAILKWYKEAHVAKGKSVFLDQMKKFVEWLQNAEEESESEGEEN
B5: human 5MP1-CTD phosphomimetic mutant (5MP1-CTD-EE) (domain or fragment)
chain: VQQSLGTRKELQKELQERLSQECPIKEVVLYVKEEMKRNDLPETAVIGLLWTCIMNAVEWNKKEELVAEQALKHLKQYAPLLAVFSSQGQSELILLQKVQEYCYDNIHFMKAFQKIVVLFYKADVLSEEAILKWYKEAHVAKGKSVFLDQMKKFVEWLQNAEEEEEEEGEEN
B6: human eIF2Bε-CTD phosphomimetic mutant (eIF2Bε-CTD-EE) (domain or fragment)
chain: GSPQMDDIKVFQNEVLGTLQRGKEENISCDNLVLEINSLKYAYNISLKEVMQVLSHVVLEFPLQQMDSPLDSSRYCALLLPLLKAWSPVFRNYIKRAADHLEALAAIEDFFLEHEALGISMAKVLMAFYQLEILAEETILSWFSQRDTTDKGQQLRKNQQLQRFIQWLKEAEEEEEEDD
B7: human eIF2Bε-CTD (domain or fragment, UniProt Q13144 543-721, looked up)
chain: GSPQMDDIKVFQNEVLGTLQRGKEENISCDNLVLEINSLKYAYNISLKEVMQVLSHVVLEFPLQQMDSPLDSSRYCALLLPLLKAWSPVFRNYIKRAADHLEALAAIEDFFLEHEALGISMAKVLMAFYQLEILAEETILSWFSQRDTTDKGQQLRKNQQLQRFIQWLKEAEEESSEDD
B8: human eIF2β-K3 (K-box 3 with surrounding segments) (domain or fragment, UniProt P20042 106-173, looked up)
chain: DVQEPTEPEDDLDIMLGNKKKKKKNVKFPDEDEILEKDEALEDEDNKKDDGISFSNQTGPAWAGSERD

Experiments:
[1] = target: human eIF5-CTD phosphomimetic mutant (eIF5-CTD-EE) (human) (UniProt P55010); test: NMR titration
[2] = target: B3; test: ITC
[3] = target: B3; test: NMR titration
[4] = target: B6; test: NMR titration
[5] = target: B5; test: NMR titration
[6] = target: B3; test: NMR titration; remark: listed apart in the source
human eIF2Bε-CTD = target: B7; test: NMR titration
human 5MP1-CTD = target: B4; test: NMR titration
[7] = target: T1, S. cerevisiae eIF5-CTD, eIF5 residues 201–405 (S. cerevisiae, UniProt P38431 201-405); test: crystal structure
T1 sequence: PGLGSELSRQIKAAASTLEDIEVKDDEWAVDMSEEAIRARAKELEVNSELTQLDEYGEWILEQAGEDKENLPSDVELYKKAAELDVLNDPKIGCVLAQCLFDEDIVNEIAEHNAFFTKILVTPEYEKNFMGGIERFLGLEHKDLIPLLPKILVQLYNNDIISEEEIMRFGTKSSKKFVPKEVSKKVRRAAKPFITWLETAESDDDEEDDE

[8] = target: B8; test: ITC
[9] = target: B1; test: ITC
[10] = target: B1; test: NMR titration
[11] = target: B8; test: NMR titration

Molecule: human eIF2β-K3 (K-box 3 with surrounding segments) (from UniProt P20042 106-173) (domain or fragment)
- Kd [1]: 0.3 µM

Molecule: human eIF2β-K1 (K-box 1 with surrounding segments) (from UniProt P20042 1-45) (domain or fragment)
- Kd [1]: 0.2 µM

Molecule: human eIF2β-NTT (residues 1–191), His6-tagged (from UniProt P20042 1-191) (domain or fragment)
- Kd [1]: 2.3 µM

Molecule: B1
- Kd [2]: 33 µM
- Kd [3]: 37 ± 6 µM

Molecule: DTRKKDASDDLDDLNFFNQKKKKKKTKKIFDIDEAEEGVKDLKIES (domain or fragment, UniProt P20042 60-105, looked up) [human eIF2β-K2 (K-box 2 with surrounding segments)]
- Kd [4]: 2.3 ± 0.5 µM
- Kd [5]: 5.6 ± 0.9 µM
- Kd [6]: 6 ± 1 µM
- Kd (human eIF2Bε-CTD): 9 ± 3 µM
- Kd (human 5MP1-CTD): 18 ± 3 µM

B2: S. cerevisiae eIF2β residues 39–106 (K-boxes 2 and 3 with flanking regions) (domain or fragment, UniProt P09064 39-106, looked up)
chain: GSGDDLFAGLKKKKKKSKSVSADAEAEKEPTDDIAEALGELSLKKKKKKTKDSSVDAFEKELAKAGLD
- binding result [7]: binds

Molecule: B3
- stoichiometry N [8]: 1
- stoichiometry N [9]: 3.46

Molecule: B4
- Kd [10]: 63 ± 5 µM

Molecule: B5
- Kd [11]: 23 ± 3 µM
- Kd [10]: 45 ± 6 µM

Molecule: B6
- Kd [11]: 14 ± 1 µM
- Kd [10]: 14 ± 4 µM

Molecule: B7
- Kd [10]: 44 ± 3 µM

Molecule: MSGDEMIFDPTMSKKKKKKKKPFMLDEEGDTQTEETQPSETKEVE (domain or fragment, UniProt P20042 1-45, looked up) [human eIF2β-K1 (K-box 1 with surrounding segments)]
- Kd [4]: 4 ± 1 µM
- Kd [5]: 11 ± 3 µM
- Kd [6]: 3 ± 1 µM
- Kd (human eIF2Bε-CTD): 8 ± 1 µM
- Kd (human 5MP1-CTD): 20 ± 7 µM

Molecule: B8
- Kd [2]: 4.7 µM
- Kd [6]: 4 ± 1 µM
- Kd (human eIF2Bε-CTD): 24 ± 3 µM
- Kd (human 5MP1-CTD): 37 ± 5 µM
